Results taken from article PMC4980077.

How the values were obtained:
smAKAP-wt-GFP (human) = smAKAP-wt-GFP (human) (UniProt Q9BSF0); test: FRET or BRET
PKA-RIα (Homo sapiens) = PKA-RIα (Homo sapiens) (UniProt P10644); test: fluorescence polarization; conditions: cited from earlier work
PKA-RIβ (Homo sapiens) = PKA-RIβ (Homo sapiens) (UniProt P31321); test: fluorescence polarization; conditions: cited from earlier work

smAKAP, sequence (Q9BSF0 2-95): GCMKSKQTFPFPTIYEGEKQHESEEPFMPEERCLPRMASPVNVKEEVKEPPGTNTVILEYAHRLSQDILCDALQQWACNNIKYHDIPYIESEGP
PKA-RIα (Homo sapiens), sequence (P10644 whole entry): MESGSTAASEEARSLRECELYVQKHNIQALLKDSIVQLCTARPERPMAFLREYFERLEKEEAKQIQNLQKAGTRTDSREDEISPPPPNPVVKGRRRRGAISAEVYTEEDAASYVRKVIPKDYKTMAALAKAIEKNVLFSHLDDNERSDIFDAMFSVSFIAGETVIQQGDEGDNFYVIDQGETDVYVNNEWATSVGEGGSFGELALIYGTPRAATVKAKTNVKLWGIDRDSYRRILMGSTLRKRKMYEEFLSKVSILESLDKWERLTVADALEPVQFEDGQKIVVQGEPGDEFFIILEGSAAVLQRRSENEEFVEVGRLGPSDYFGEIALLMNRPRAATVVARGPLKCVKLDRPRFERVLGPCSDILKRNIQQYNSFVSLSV
smAKAP-wt-GFP (human), sequence (Q9BSF0 whole entry): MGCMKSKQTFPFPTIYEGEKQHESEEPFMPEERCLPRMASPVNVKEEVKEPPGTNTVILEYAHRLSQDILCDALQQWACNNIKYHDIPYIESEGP

“PKA-RIβ-mKO2 (from UniProt P31321 1-381) (natural protein)” gave a change of FRET signal after forskolin (smAKAP-wt-GFP (human)) of -2.3%.

In the case of smAKAP (from UniProt Q9BSF0), the Kd (PKA-RIα (Homo sapiens)) is listed as 6.7 nM and the Kd (PKA-RIβ (Homo sapiens)) is listed as 6.9 nM.
